Measured values taken from patent US20030087827A1.
Non-standard residues stand in square brackets, D forms with d.

Assays:
[1] = target: recombinant truncated mouse furin (mouse) (UniProt P23188); experiment: enzyme inhibition, pERTKR-MCA hydrolysis (fluorescence), competitive Ki
[2] = target: proprotein convertase PC2; experiment: as above
proprotein convertase PC2, sequence (P21661 109-637): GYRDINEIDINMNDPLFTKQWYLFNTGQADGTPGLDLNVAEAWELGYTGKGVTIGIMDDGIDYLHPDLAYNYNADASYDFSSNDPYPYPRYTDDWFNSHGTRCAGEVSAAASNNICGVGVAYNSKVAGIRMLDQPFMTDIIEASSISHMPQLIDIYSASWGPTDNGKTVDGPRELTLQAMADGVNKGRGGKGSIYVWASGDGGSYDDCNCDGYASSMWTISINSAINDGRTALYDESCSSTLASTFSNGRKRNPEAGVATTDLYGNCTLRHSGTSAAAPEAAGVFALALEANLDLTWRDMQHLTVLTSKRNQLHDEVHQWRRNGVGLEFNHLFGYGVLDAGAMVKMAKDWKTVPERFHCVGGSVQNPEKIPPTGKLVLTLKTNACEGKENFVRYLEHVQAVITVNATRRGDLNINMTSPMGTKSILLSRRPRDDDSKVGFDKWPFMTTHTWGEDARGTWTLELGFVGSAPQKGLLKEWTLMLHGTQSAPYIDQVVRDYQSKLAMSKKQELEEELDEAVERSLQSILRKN

recombinant truncated mouse furin (mouse), sequence (P23188 108-714): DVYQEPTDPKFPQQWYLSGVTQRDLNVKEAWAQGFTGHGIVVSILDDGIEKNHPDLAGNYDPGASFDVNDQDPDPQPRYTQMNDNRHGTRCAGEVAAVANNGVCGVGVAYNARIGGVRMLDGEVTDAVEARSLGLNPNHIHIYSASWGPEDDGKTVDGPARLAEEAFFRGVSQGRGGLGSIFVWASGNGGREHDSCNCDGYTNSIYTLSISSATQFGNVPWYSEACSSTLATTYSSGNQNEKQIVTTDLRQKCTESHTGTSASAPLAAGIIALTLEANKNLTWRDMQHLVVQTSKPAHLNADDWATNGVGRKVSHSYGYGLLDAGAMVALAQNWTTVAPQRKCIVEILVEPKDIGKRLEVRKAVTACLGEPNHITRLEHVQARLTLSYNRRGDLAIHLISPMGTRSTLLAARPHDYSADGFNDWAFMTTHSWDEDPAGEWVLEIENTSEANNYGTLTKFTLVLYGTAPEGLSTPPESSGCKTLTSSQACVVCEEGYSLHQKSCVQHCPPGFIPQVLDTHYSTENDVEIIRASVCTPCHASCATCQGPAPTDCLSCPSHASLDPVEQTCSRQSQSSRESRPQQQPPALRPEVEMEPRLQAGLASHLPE

Binder | Ki [1] | Ki [2]
Ac-[dW][dR][dR][dR][dR][dR]-NH2 (SMILES CC(=O)N[C@H](Cc1c[nH]c2ccccc12)C(=O)N[C@H](CCCNC(=N)N)C(=O)N[C@H](CCCNC(=N)N)C(=O)N[C@H](CCCNC(=N)N)C(=O)N[C@H](CCCNC(=N)N)C(=O)N[C@H](CCCNC(=N)N)C(N)=O) [Ac-wrrrrr-NH2] | 2.4 µM | 334 µM
Ac-[dW][dR][dR][dR][dI][dL]-NH2 (SMILES CC[C@@H](C)[C@@H](NC(=O)[C@@H](CCCNC(=N)N)NC(=O)[C@@H](CCCNC(=N)N)NC(=O)[C@@H](CCCNC(=N)N)NC(=O)[C@@H](Cc1c[nH]c2ccccc12)NC(C)=O)C(=O)N[C@H](CC(C)C)C(N)=O) [Ac-wrrril-NH2] | 22.7 µM | 601 µM
Ac-[dW][dR][dR][dR][dI][dR]-NH2 (SMILES CC[C@@H](C)[C@@H](NC(=O)[C@@H](CCCNC(=N)N)NC(=O)[C@@H](CCCNC(=N)N)NC(=O)[C@@H](CCCNC(=N)N)NC(=O)[C@@H](Cc1c[nH]c2ccccc12)NC(C)=O)C(=O)N[C@H](CCCNC(=N)N)C(N)=O) [Ac-wrrrir-NH2] | 7 µM | 399 µM
Ac-[dW][dR][dR][dR][dR][dL]-NH2 (SMILES CC(=O)N[C@H](Cc1c[nH]c2ccccc12)C(=O)N[C@H](CCCNC(=N)N)C(=O)N[C@H](CCCNC(=N)N)C(=O)N[C@H](CCCNC(=N)N)C(=O)N[C@H](CCCNC(=N)N)C(=O)N[C@H](CC(C)C)C(N)=O) [Ac-wrrrrl-NH2] | 5.3 µM | 203 µM
